This data set has as its target Casp-Cas9 (Aciduliprofundum boonei T469 / …, UniProt B5IAF4 1-404+=GGSGGSGGSGGSGGSGGSGGSGGS+Q99ZW2:1-1368, internal_change). Briefly: R-loop formation gel assay (deproteinised); sgran50; 5 mM EDTA; 25 mM Tris pH 7.5, 106 mM KCl, 50 ug/ml BSA, 5 mM EDTA, 2 mM DTT, 9% glycerol, 37 C; 150 nM protein, 300 nM sgRNA, 25 nM Cy5-dsran50, 75 nM unlabelled MW12 dsDNA competitor; 8% acrylamide TBE gel. The following applies: protein: recombinant, tags: His6, label: 5'-Cy5 on ssran50 strand (strand 2), blunt 50 bp DNA target plus sgRNA, PAM TGG.

These results are taken from PMC7786333, “Integration of diverse DNA substrates by a casposase can be targeted to R-loops in vitro by its fusion to Cas9”.

B1: sgran50 + dsran50 (mixed)
RNA: GGUAGACGAUUACAUUGCUACAGUUUUAGAGCUAGAAAUAGCAAGUUAAAAUAAGGCUAGUCCGUUAUCAACUUGAAAAAGUGGCACCGAGUCGGUGCUU
DNA 1: CAACGTCATAGACGATTACATTGCTACATGGAGCTGTCTAGAGGATCCGA
DNA 2: TCGGATCCTCTAGACAGCTCCATGTAGCAATGTAATCGTCTATGACGTTG
As to B1, the binding result is “binds”.
